Test results reported in the supplement of paper PMC9170038.

Tested on: K4 kissing-loop RNA reporter
Test: apparent KD of K4 kissing-loop reporter; higher = weaker reporter binding
Conditions: Eterna round: R107
Experimental: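 RNA-MaP round R107: designed RNA switches with theophylline, tryptophan, arginine or FMN aptamers are transcribed on-chip within common flanks. They are titrated with a labelled K4 kissing-loop RNA reporter in RNA-MaP buffer (100 mM Tris pH 7.5, 80 mM KCl, 4 mM MgCl2), without ligand or with the indicated ligand. Median apparent KD per design.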

[1] = input ligand: theophylline 20 uM
[2] = input ligand: tryptophan 2.4 mM
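Further: bound reporter read as fluorescence of individual clusters on recovered sequencing chips by microscopy, with normalized cluster intensities fitted with a binding model.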

Sequence | apparent KD of K4 kissing-loop reporter (input ligand: FMN 200 uM) | apparent KD of K4 kissing-loop reporter (input ligand: arginine 13.2 mM) | apparent KD of K4 kissing-loop reporter (input ligand: none) | apparent KD of K4 kissing-loop reporter [1] | apparent KD of K4 kissing-loop reporter [2]
UUUUGCUAGCGAAACGCUAGCUUAACAGAUACCAGUCGCGAAAGCGACCCUUGGCAGCUGCUGAGUGAUGUUCAGGUGAGAGUUA | 387 nM | 221 nM | 344 nM | 301 nM | 312 nM
CCAAGCGUCAGCGAUACCAGAAUUCUAGUGAUGUUAGGUUCUGUCAUUGUACUAGCAGUGUUCCCUUGGCAGCGCGUGAUAGGCA [theeternabot_exclusion_KL_Theo_B_16] | 170 nM | 121 nM | 140 nM | 173 nM | 138 nM
GCCGUACGCAUGGAUACCAGAGAUGUUAAUCUCGAUGCCAGUGAUGUUGGCUUUAGCUAUCUCCCUUGGCAGCCAUGCGUACGGC | 1050 nM | 608 nM | 909 nM | 566 nM | 1000 nM
UGUCAUGGAAACAUGAACGUUGAAAUAAAUCGAGGACCGGUACGGCCGCCACUCGUAUAGCGGUCAGUGAUGUUGACUGUAAUAA [KL-SSTryp-A form2 sub9] | 94.9 nM | 112 nM | 110 nM | 132 nM | 98.7 nM
AGAUUCGACACGGCCGCCACUCGUGGAUCUUGGUUGAGAGAUGAAAUAGAGUGAUGUUCUAAUACGAGGACCGGGUGUUGAGUCU [KL-SSTryp-B23] | 221 nM | 165 nM | 200 nM | 177 nM | 174 nM
GCCGUAGAUUGAAGGAGCGGACUUAUAGGUCUUAAGGAGUGAUGUUCCUGACACUCGGCGGUCCAGGUAGGUCGCAAUCUACGGC | 296 nM | 269 nM | 320 nM | 252 nM | 272 nM
UGGGAUGUUAAAGGAUAUAGCAGAUGAUACAAGAAAGUGAGUGAUGUUUAUGUAGAUGAUGAUAUGUUAGAAGGUUAACAAAACG [abcdefghijk] | 625 nM | 595 nM | 754 nM | 715 nM | 544 nM
GCCGUAGAUUGAAGGAGCGUGGACCUAUCGCUUGAACAGUGAUGUUGUUUAUCUAGGGAGCCGCAGGUAGGUCGCAAUCUACGGC | 470 nM | 355 nM | 478 nM | 370 nM | 386 nM
UAACGGCAACAAGGAUAUCCCAGUGAUGUUGGGAGAUAUUGACUAAGGAGACAUGAUAGGCAUAAUGGAGAAGGUGUGUUGGGAG [theeternabot_exclusion_KL_FMN_B_19] | 159 nM | 116 nM | 142 nM | 131 nM | 138 nM
GUAUGUGGAAACACGUACUUGUAUCCUAGGCAGGAUAUGCGGAAACGCAGAAGGGCCACCGGCGAGUUUAUCCAGUGAUGUUGGA [Ex FMN A 9] | 245 nM | 257 nM | 291 nM | 251 nM | 237 nM
UGGACCGCCUGAGGAUAUAGGGACGAGUGAUGUUCGUGGACCAGAGCCAGUGAUGUUGGGUUAUUUCUAGAAGGCGGGCGAACUU [Exclusion FMN B GF11] | 120 nM | 167 nM | 188 nM | 154 nM | 146 nM
UGUCAUUGGUCUGAUACCAGUACCCUUGGCAGCCAAGGAGUGAUGUUCCGAGGAUACCAGUGCCCUUGGCAGCAGACCGAUGACU [TheoBS 27 #DoubleAptamer #SwitchBubble] | 375 nM | 308 nM | 354 nM | 176 nM | 350 nM
AUUUUUUUGUCAGGAUAUUAGUAUGCUUUUGGUUUGUUAGUGAUGUUGAUAUUUUGUUUAUGUAUUUAAGAAGGGAUUUAGCGGU [etvuumullin] | 409 nM | 276 nM | 362 nM | 371 nM | 255 nM
UAACUGCAGUGAUGUUGCAGAUGUCCUGACUAGGAUAUCAGGAAACUGAGAAGGAGUCCCUUCUACUGCAACAAGAAGGAGGACA [[K1]-[K2]-[F1]'-[F1]-[F2]-[F2]'-[K]'-[F]''_Design2] | 396 nM | 347 nM | 436 nM | 391 nM | 408 nM
UUAGGAGUGGAAGGAUAUCCUGGUGUGGGUGGUGUUAGUGAUGUUGGUGGUGCAGUGAUGUUGCGCGGAGAAGGUCCGGUGUUGA [BDazzled - #4 - Exc. FMN B] | 471 nM | 384 nM | 434 nM | 554 nM | 358 nM
UGACAUUGCUCAGAUACCAGACACGAGGAUCACCCGUGUGCCAAAACGUACUAAAUAAGUGUCCCUUGGCAGCUGAGCAAUGUCU [TheoBX 13] | 78.1 nM | 19.8 nM | 30.1 nM | 148 nM | 47.8 nM
GAUUAAUAAGAGGAUACCAGUACUAAUAAAGUACAUUAAUAGUAGAGUGAUGUUCUAUAGUACCCUUGGCAGCUUAGAGUAAGUU [#09 K4 Theophylline B Exclusion] | 131 nM | 200 nM | 167 nM | 210 nM | 103 nM
UGACUGGACUGAAGGAGCGGGCGAGACAAAGUCUCGAACUGCUAGUGAUGUUAGCAAAUAACCCAGGUAGGUCGCAGUCUAGUCU | 122 nM | 100 nM | 120 nM | 109 nM | 110 nM
AGUGAACGAGCGGCCGCCACUAAAUGAGUGAUGUUCGUGAGUAGUGCUGUUGUCAUGAUUGUUUUUAGGACCGGGUUCGAUGUUG [popplmullin] | 719 nM | 735 nM | 1270 nM | 963 nM | 719 nM
ACGUCCGGGUUAAUCGUGGGCGUGGUGGAUACCAGUUCUUUAAUGAACCCUUGGCAGCCACAUGAGUGAUGUUCAUGUGCGAUGA [KL-XTheo-A10 #analogue] | 100 nM | 102 nM | 96.2 nM | 98.2 nM | 95.4 nM
UAGGAGUGAUGUUCCAUAUCUUGAGCCGAAGGAGCGCCUUUCUAGGCAGGUAGGUCGCGGCAGAAGGUACCAGUGAUGUUGGAAA [Same State Arginine A GF7] | 163 nM | 171 nM | 208 nM | 184 nM | 145 nM
UCCACGCUUAGAGGAUAUCGGAUUAGAGUGAUGUUCUAAAGAAGCCCAGUGAUGUUGGAUGGUAUACGAGAAGGCUGUGGCGUGU [Same State FMN B GF 4] | 254 nM | 446 nM | 386 nM | 371 nM | 369 nM

Sequence | apparent KD of K4 kissing-loop reporter (input ligand: FMN 200 uM) | apparent KD of K4 kissing-loop reporter (input ligand: arginine 13.2 mM) | apparent KD of K4 kissing-loop reporter (input ligand: none) | apparent KD of K4 kissing-loop reporter [1] | apparent KD of K4 kissing-loop reporter [2]
UGAUACCAGACUGAUACCAGCCAGUGAUGUUGGCUAAGCCAAAUAGGAGUCAAAGACUCCGGCCCUUGGCAGCAGUCUGGUAUCU [TheoBX 5 #SwitchBubble #StaticStem] | 127 nM | 117 nM | 122 nM | 124 nM | 127 nM
AGAUGGAAUAGAAGGAGCGGCGCCAGUGAUGUUGGAUGCCGCGGGUGAAUCAUGUCAUAGUGCCAGGUAGGUCGCUAUUUCAGCU [Beinveve] | 104 nM | 98.1 nM | 96.6 nM | 103 nM | 90.8 nM
GCCUAGCAGCGAAGGAGCGCCAGGAGAAGAAAUGGAGAGAGUUGAGUGAUGUUCAAAUGGUGGCAGGUAGGUCGCGCUGCUAGGC [#08 K4 Arginine B Same State] | 559 nM | 261 nM | 432 nM | 444 nM | 377 nM
GCCGUACGCAUGGAUACCAGUUGCGAAGUGAUGUUUCGGGCGAUCAAAGGAUCGCCAGACAACCCUUGGCAGCCAUGCGUACGGC | 757 nM | 506 nM | 1600 nM | 769 nM | 674 nM
ACGUGCACGAGUGAUGUUUGAAAAUCUGAAGGAGCGGGCGAAAGCCCAGGUAGGUCGCAGAAUAGCACGAGCCACGAAAGUGGCA | 202 nM | 272 nM | 319 nM | 142 nM | 191 nM
AAGCAGUCACUCGCAGCCAUCGAAGAUGGGCGAGGACCGGUACGGCCGCCACUCGGAGUGAUGUUCCGCAGACUGCAAAAUAAAA | 536 nM | 343 nM | 350 nM | 437 nM | 428 nM
UCCUGCAAUCGACCACGAAAGUGGUUCGAUACCAGAGUCGAAAGACUCCCUUGGCAGCGAGUGAUGUUCGAGCAGGUAAAAUAAA | 438 nM | 436 nM | 567 nM | 467 nM | 472 nM
UCCUAGGCUCGAAAGAGCCUAGGAUUUACUCAGGAUAUCCGGAAACGGAGAAGGGAGUGACUAGUGAUGUUAGGGACUCCCUAAA | 144 nM | 80.8 nM | 95.5 nM | 108 nM | 90.6 nM
CGCGCGUGAGGACUUGCCCUUCAUGGAGAUACCAGCCAGUAUGCGGGCCCUUGGCAGCUCGAGUGAUGUUCGAGUUUAAGGCAAA [Riesla] | 130 nM | 113 nM | 115 nM | 114 nM | 108 nM
AGAUUCGACACGGCCGCCACUUCCAGUGGUCGGUGUCAUGGUGCACAUGAGUGAUGUUCAUGUGGAAGGACCGGGUGUUGAGUCU [KL-XTryp-B3 #analogue] | 111 nM | 91.4 nM | 103 nM | 108 nM | 165 nM
AGGCACGAGCAAGGAUAUCGAGUGGAGUGAUGUUCUGCCGACCCAGGACCGCAAGGUCCUGGGUCGCGAGAAGGUGCUCGUGCCU [#2 Same State - FMN A Attempt #5 (HarryS)] | 254 nM | 642 nM | 730 nM | 676 nM | 685 nM
UGAUAGGACAGAAGGAGCGGAAGUGAUGUUUCCAAAUGGAAUAAGGUGUCAAAGACACCCUUCCAGGUAGGUCGCUGUCCUAUCU [ArgBX 15 #Palindromic #SwitchBubble #StaticStem] | 147 nM | 175 nM | 140 nM | 161 nM | 128 nM
CGCGGCCCGCCGGAUACCAGUGACCCGCGGGAAACCGCGGGCCCAGAGUGAUGUUCGGGACACCCUUGGCAGCCGCCUGGGCGUG [#2 Same State - Theophylline B Attempt #1 (HarryS)] | 567 nM | 325 nM | 620 nM | 1000 nM | 424 nM
UAACUUGCAGUGAUGUUGCAAGAACUGGAUACCAGCAUGGAAACAUGCCCUUGGCAGCCAGAAGGUAUCCUCUUGCAUAGAUACU [Design3] | 216 nM | 178 nM | 195 nM | 220 nM | 192 nM
AAGUCAUAGGCAGGAUAUGCUUAGUAUUAAGGCCAUAUAUACGUAUAGAGUGAUGUUUUGUACCAGGCAGAAGGGCUACAUCCGU [FMN B Excl V5 (+2U)] | 755 nM | 562 nM | 699 nM | 683 nM | 541 nM
AUGUCUUAUAAACUCGUGGUUUCGAUCGAUACCAGUAGCGAGAGUUACCCUUGGCAGCGACAUGAGUGAUGUUCAUGUACGAAGA [KL-XTheoA4] | 96.1 nM | 89 nM | 94.3 nM | 90.2 nM | 92.9 nM
GAUUGUGAUGGAAACAUCGCAAUCUCUGAAGGAGCGCGUGAAAACGCAGGUAGGUCGCAGAACGACAAAGACAGUGAUGUUGUCA [Ex Arginine A K4 5] | 321 nM | 263 nM | 289 nM | 298 nM | 234 nM
UGACUACAAAAGGAAUAAUCCUAGUGAUGUUAGGAUAUGCUGAUAAGCAGAAGGAACGGAGAUCGAAGGAUCUCAUAUGUAGUCU [whbob_Ex_FMNA__2th193] | 170 nM | 92.1 nM | 86.9 nM | 117 nM | 89 nM
UGCCCGCGCGAAGGAUAUGAGAGCUUGUCUGUCCAGUGAUGUUGGAGGUUGGUGAUUUGCUAGGCGUCAGAAGGUCGAGCUUAUA [theeternabot_sameState_KL_FMN_B_14] | 192 nM | 94.4 nM | 153 nM | 150 nM | 133 nM
AGGGCGGAGUGAUGUUCCGGCUCCCGAUUUAAGGAUAUUGCGUAAACAAGAAGGUAAAGGCGCAGCAAUAUUAUUUCGUAAGGCG [theeternabot_exclusion_KL_FMN_A_23] | 85.5 nM | 103 nM | 93.7 nM | 111 nM | 79.1 nM
AGGAGCGUGCGAUGGAAAUCGCACGCUCCUCGAGGACCGGUACGGCCGCCACUCGCUCGCGCCGAGUGAUGUUCGGCCGGCGAAG [#2 Same State - Tryptophan A Attempt #16 (HarryS)] | 85.6 nM | 128 nM | 85.7 nM | 58.6 nM | 82.8 nM
